This passage reports STK11 functional score results from the supplement of paper PMC12338614.

B1: library; numbered along this chain (parent)
chain: MEVVDPQQLGMFTEGELMSVGMDTFIHRIDSTEVIYQPRRKRAKLIGKYLMGDLLGEGSYGKVKEVLDSETLCRRAVKILKKKKLRRIPNGEANVKKEIQLLRRLRHKNVIQLVDVLYNEEKQKMYMVMEYCVCGMQEMLDSVPEKRFPVCQAHGYFCQLIDGLEYLHSQGIVHKDIKPGNLLLTTGGTLKISDLGVAEALHPFAADDTCRTSQGSPAFQPPEIANGLDTFSGFKVDIWSAGVTLYNITTGLYPFEGDNIYKLFENIGKGSYAIPGDCGPPLSDLLKGMLEYEPAKRFSIRQIRQHSWFRKKHPPAEAPVPIPPSPDTKDRWRSMTVVPYLEDLHGADEDEDLFDIEDDIIYTQDFTVPGQVPEEEASHNGQRRGLPKAVCMNGTEAAQLSTKSRAEGRAPNPARKACSASSKIRRLSACKQQ

± gives the uncertainty stated by the source.

In the data set the parent is B1. Kind of data set: STK11 functional score (HeLa growth suppression), rescaled enrichment; synonymous median = 1, nonsense median = 0 (normalised score). Conditions: with HeLa; variant type: missense. Summed up:
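In HeLa, Bxb1 integrated POPCode codon-randomised libraries of codon-optimised STK11 at an AAVS1 landing pad; three regions were each transfected three times. Integrants, marked as BFP-negative and mCherry-positive, were FACS-sorted 4–5 days after electroporation and expanded for about two weeks before tiled gDNA amplicons were sequenced on NextSeq (~2 million reads per tile). Each functional score is a post/pre-selection log ratio corrected to wild type, rescaled to the synonymous and nonsense medians, and merged across codons and replicate transfections, with error estimated by bootstrapping.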
Take MEVVDPQQLGMFTEGELMSVGMDTFIHRIDSTEVIYQPRRKRAKLIGKYLMGDLLGEGSYGKVKEVLDSETLCRRAVKILKKKKLRRIPNGEANVKKEIQLLRRLRHKNVIQLVDVLYNEEKQKMYMVMEYCVCGMQEMLDSVPEKRFPVCQAHGYFCQLIDGLEYLHSQGIVHKDIKPGNLLLTTGGTLKISDLGVAEALHPFAADDTCRTSQGSPAFQPPEIANGLDTFSGFKVDIWSAGVTLYNITTGLYPFEGDNIYKLFENIGKGSYAIPGDCGPPLSDLLKGMLEYEPAKDFSIRQIRQHSWFRKKHPPAEAPVPIPPSPDTKDRWRSMTVVPYLEDLHGADEDEDLFDIEDDIIYTQDFTVPGQVPEEEASHNGQRRGLPKAVCMNGTEAAQLSTKSRAEGRAPNPARKACSASSKIRRLSACKQQ [R297D]: the STK11 functional score amounted to 0.0713 ± 0.079.

Turning to MEVVDPQQLGMFTEGELMSVGMDTFIHRIDSTEVIYQPRRKRAKLIGKYLMGDLLGEGSYGKVKEVLDSETLCRRAVKILKKKKLRRIPNGEANVKKEIQLLRRLRHKNVIQLVDVLYNEEKQKMYMVMEYCVCGMQEMLDSVPEKRFPVCQAHGYFCQLIDGLEYLHSQGIVHKDIKPGNLLLTTGGTLKISDLGVAEALHPFAADDTCRTSQGSPAFQPPEIANGLDTFSGFKVDIWSAGVTLYNITTGLYPFEGDNIYKLFENIGKGSYAIPGDCGPPLSDLLKGMLEYEPAKKFSIRQIRQHSWFRKKHPPAEAPVPIPPSPDTKDRWRSMTVVPYLEDLHGADEDEDLFDIEDDIIYTQDFTVPGQVPEEEASHNGQRRGLPKAVCMNGTEAAQLSTKSRAEGRAPNPARKACSASSKIRRLSACKQQ [R297K], the STK11 functional score was -0.29 ± 0.13.

In the case of MEVVDPQQLGMFTEGELMSVGMDTFIHRIDSTEVIYQPRRKRAKLIGKYLMGDLLGEGSYGKVKEVLDSETLCRRAVKILKKKKLRRIPNGEANVKKEIQLLRRLRHKNVIQLVDVLYNEEKQKMYMVMEYCVCGMQEMLDSVPEKRFPVCQAHGYFCQLIDGLEYLHSQGIVHKDIKPGNLLLTTGGTLKISDLGVAEALHPFAADDTCRTSQGSPAFQPPEIANGLDTFSGFKVDIWSAGVTLYNITTGLYPFEGDNIYKLFENIGKGSYAIPGDCGPPLSDLLKGMLEYEPAKPFSIRQIRQHSWFRKKHPPAEAPVPIPPSPDTKDRWRSMTVVPYLEDLHGADEDEDLFDIEDDIIYTQDFTVPGQVPEEEASHNGQRRGLPKAVCMNGTEAAQLSTKSRAEGRAPNPARKACSASSKIRRLSACKQQ [R297P], the STK11 functional score was -0.429 ± 0.077.

Consider MEVVDPQQLGMFTEGELMSVGMDTFIHRIDSTEVIYQPRRKRAKLIGKYLMGDLLGEGSYGKVKEVLDSETLCRRAVKILKKKKLRRIPNGEANVKKEIQLLRRLRHKNVIQLVDVLYNEEKQKMYMVMEYCVCGMQEMLDSVPEKRFPVCQAHGYFCQLIDGLEYLHSQGIVHKDIKPGNLLLTTGGTLKISDLGVAEALHPFAADDTCRTSQGSPAFQPPEIANGLDTFSGFKVDIWSAGVTLYNITTGLYPFEGDNIYKLFENIGKGSYAIPGDCGPPLSDLLKGMLEYEPAKCFSIRQIRQHSWFRKKHPPAEAPVPIPPSPDTKDRWRSMTVVPYLEDLHGADEDEDLFDIEDDIIYTQDFTVPGQVPEEEASHNGQRRGLPKAVCMNGTEAAQLSTKSRAEGRAPNPARKACSASSKIRRLSACKQQ [R297C], for which the STK11 functional score is -0.195 ± 0.096.

With MEVVDPQQLGMFTEGELMSVGMDTFIHRIDSTEVIYQPRRKRAKLIGKYLMGDLLGEGSYGKVKEVLDSETLCRRAVKILKKKKLRRIPNGEANVKKEIQLLRRLRHKNVIQLVDVLYNEEKQKMYMVMEYCVCGMQEMLDSVPEKRFPVCQAHGYFCQLIDGLEYLHSQGIVHKDIKPGNLLLTTGGTLKISDLGVAEALHPFAADDTCRTSQGSPAFQPPEIANGLDTFSGFKVDIWSAGVTLYNITTGLYPFEGDNIYKLFENIGKGSYAIPGDCGPPLSDLLKGMLEYEPAKFFSIRQIRQHSWFRKKHPPAEAPVPIPPSPDTKDRWRSMTVVPYLEDLHGADEDEDLFDIEDDIIYTQDFTVPGQVPEEEASHNGQRRGLPKAVCMNGTEAAQLSTKSRAEGRAPNPARKACSASSKIRRLSACKQQ [R297F], the STK11 functional score is -0.355 ± 0.076.

On to MEVVDPQQLGMFTEGELMSVGMDTFIHRIDSTEVIYQPRRKRAKLIGKYLMGDLLGEGSYGKVKEVLDSETLCRRAVKILKKKKLRRIPNGEANVKKEIQLLRRLRHKNVIQLVDVLYNEEKQKMYMVMEYCVCGMQEMLDSVPEKRFPVCQAHGYFCQLIDGLEYLHSQGIVHKDIKPGNLLLTTGGTLKISDLGVAEALHPFAADDTCRTSQGSPAFQPPEIANGLDTFSGFKVDIWSAGVTLYNITTGLYPFEGDNIYKLFENIGKGSYAIPGDCGPPLSDLLKGMLEYEPAKIFSIRQIRQHSWFRKKHPPAEAPVPIPPSPDTKDRWRSMTVVPYLEDLHGADEDEDLFDIEDDIIYTQDFTVPGQVPEEEASHNGQRRGLPKAVCMNGTEAAQLSTKSRAEGRAPNPARKACSASSKIRRLSACKQQ [R297I], for which the STK11 functional score was found to be 0.0965 ± 0.092.

In the case of MEVVDPQQLGMFTEGELMSVGMDTFIHRIDSTEVIYQPRRKRAKLIGKYLMGDLLGEGSYGKVKEVLDSETLCRRAVKILKKKKLRRIPNGEANVKKEIQLLRRLRHKNVIQLVDVLYNEEKQKMYMVMEYCVCGMQEMLDSVPEKRFPVCQAHGYFCQLIDGLEYLHSQGIVHKDIKPGNLLLTTGGTLKISDLGVAEALHPFAADDTCRTSQGSPAFQPPEIANGLDTFSGFKVDIWSAGVTLYNITTGLYPFEGDNIYKLFENIGKGSYAIPGDCGPPLSDLLKGMLEYEPAKGFSIRQIRQHSWFRKKHPPAEAPVPIPPSPDTKDRWRSMTVVPYLEDLHGADEDEDLFDIEDDIIYTQDFTVPGQVPEEEASHNGQRRGLPKAVCMNGTEAAQLSTKSRAEGRAPNPARKACSASSKIRRLSACKQQ [R297G], the STK11 functional score was -0.132 ± 0.076.

On to MEVVDPQQLGMFTEGELMSVGMDTFIHRIDSTEVIYQPRRKRAKLIGKYLMGDLLGEGSYGKVKEVLDSETLCRRAVKILKKKKLRRIPNGEANVKKEIQLLRRLRHKNVIQLVDVLYNEEKQKMYMVMEYCVCGMQEMLDSVPEKRFPVCQAHGYFCQLIDGLEYLHSQGIVHKDIKPGNLLLTTGGTLKISDLGVAEALHPFAADDTCRTSQGSPAFQPPEIANGLDTFSGFKVDIWSAGVTLYNITTGLYPFEGDNIYKLFENIGKGSYAIPGDCGPPLSDLLKGMLEYEPAKAFSIRQIRQHSWFRKKHPPAEAPVPIPPSPDTKDRWRSMTVVPYLEDLHGADEDEDLFDIEDDIIYTQDFTVPGQVPEEEASHNGQRRGLPKAVCMNGTEAAQLSTKSRAEGRAPNPARKACSASSKIRRLSACKQQ [R297A], for which the STK11 functional score came to 0.147 ± 0.078.

With MEVVDPQQLGMFTEGELMSVGMDTFIHRIDSTEVIYQPRRKRAKLIGKYLMGDLLGEGSYGKVKEVLDSETLCRRAVKILKKKKLRRIPNGEANVKKEIQLLRRLRHKNVIQLVDVLYNEEKQKMYMVMEYCVCGMQEMLDSVPEKRFPVCQAHGYFCQLIDGLEYLHSQGIVHKDIKPGNLLLTTGGTLKISDLGVAEALHPFAADDTCRTSQGSPAFQPPEIANGLDTFSGFKVDIWSAGVTLYNITTGLYPFEGDNIYKLFENIGKGSYAIPGDCGPPLSDLLKGMLEYEPAKSFSIRQIRQHSWFRKKHPPAEAPVPIPPSPDTKDRWRSMTVVPYLEDLHGADEDEDLFDIEDDIIYTQDFTVPGQVPEEEASHNGQRRGLPKAVCMNGTEAAQLSTKSRAEGRAPNPARKACSASSKIRRLSACKQQ [R297S], the STK11 functional score is -0.196 ± 0.08.

Take MEVVDPQQLGMFTEGELMSVGMDTFIHRIDSTEVIYQPRRKRAKLIGKYLMGDLLGEGSYGKVKEVLDSETLCRRAVKILKKKKLRRIPNGEANVKKEIQLLRRLRHKNVIQLVDVLYNEEKQKMYMVMEYCVCGMQEMLDSVPEKRFPVCQAHGYFCQLIDGLEYLHSQGIVHKDIKPGNLLLTTGGTLKISDLGVAEALHPFAADDTCRTSQGSPAFQPPEIANGLDTFSGFKVDIWSAGVTLYNITTGLYPFEGDNIYKLFENIGKGSYAIPGDCGPPLSDLLKGMLEYEPAKLFSIRQIRQHSWFRKKHPPAEAPVPIPPSPDTKDRWRSMTVVPYLEDLHGADEDEDLFDIEDDIIYTQDFTVPGQVPEEEASHNGQRRGLPKAVCMNGTEAAQLSTKSRAEGRAPNPARKACSASSKIRRLSACKQQ [R297L]: the STK11 functional score is -0.121 ± 0.1.

Consider MEVVDPQQLGMFTEGELMSVGMDTFIHRIDSTEVIYQPRRKRAKLIGKYLMGDLLGEGSYGKVKEVLDSETLCRRAVKILKKKKLRRIPNGEANVKKEIQLLRRLRHKNVIQLVDVLYNEEKQKMYMVMEYCVCGMQEMLDSVPEKRFPVCQAHGYFCQLIDGLEYLHSQGIVHKDIKPGNLLLTTGGTLKISDLGVAEALHPFAADDTCRTSQGSPAFQPPEIANGLDTFSGFKVDIWSAGVTLYNITTGLYPFEGDNIYKLFENIGKGSYAIPGDCGPPLSDLLKGMLEYEPANRFSIRQIRQHSWFRKKHPPAEAPVPIPPSPDTKDRWRSMTVVPYLEDLHGADEDEDLFDIEDDIIYTQDFTVPGQVPEEEASHNGQRRGLPKAVCMNGTEAAQLSTKSRAEGRAPNPARKACSASSKIRRLSACKQQ [K296N], for which the STK11 functional score came out at 1.12 ± 0.44.

For MEVVDPQQLGMFTEGELMSVGMDTFIHRIDSTEVIYQPRRKRAKLIGKYLMGDLLGEGSYGKVKEVLDSETLCRRAVKILKKKKLRRIPNGEANVKKEIQLLRRLRHKNVIQLVDVLYNEEKQKMYMVMEYCVCGMQEMLDSVPEKRFPVCQAHGYFCQLIDGLEYLHSQGIVHKDIKPGNLLLTTGGTLKISDLGVAEALHPFAADDTCRTSQGSPAFQPPEIANGLDTFSGFKVDIWSAGVTLYNITTGLYPFEGDNIYKLFENIGKGSYAIPGDCGPPLSDLLKGMLEYEPAMRFSIRQIRQHSWFRKKHPPAEAPVPIPPSPDTKDRWRSMTVVPYLEDLHGADEDEDLFDIEDDIIYTQDFTVPGQVPEEEASHNGQRRGLPKAVCMNGTEAAQLSTKSRAEGRAPNPARKACSASSKIRRLSACKQQ [K296M], the STK11 functional score turned out to be 1.32 ± 0.89.

Turning to MEVVDPQQLGMFTEGELMSVGMDTFIHRIDSTEVIYQPRRKRAKLIGKYLMGDLLGEGSYGKVKEVLDSETLCRRAVKILKKKKLRRIPNGEANVKKEIQLLRRLRHKNVIQLVDVLYNEEKQKMYMVMEYCVCGMQEMLDSVPEKRFPVCQAHGYFCQLIDGLEYLHSQGIVHKDIKPGNLLLTTGGTLKISDLGVAEALHPFAADDTCRTSQGSPAFQPPEIANGLDTFSGFKVDIWSAGVTLYNITTGLYPFEGDNIYKLFENIGKGSYAIPGDCGPPLSDLLKGMLEYEPWKRFSIRQIRQHSWFRKKHPPAEAPVPIPPSPDTKDRWRSMTVVPYLEDLHGADEDEDLFDIEDDIIYTQDFTVPGQVPEEEASHNGQRRGLPKAVCMNGTEAAQLSTKSRAEGRAPNPARKACSASSKIRRLSACKQQ [A295W], the STK11 functional score worked out at 1.36 ± 0.2.

Regarding MEVVDPQQLGMFTEGELMSVGMDTFIHRIDSTEVIYQPRRKRAKLIGKYLMGDLLGEGSYGKVKEVLDSETLCRRAVKILKKKKLRRIPNGEANVKKEIQLLRRLRHKNVIQLVDVLYNEEKQKMYMVMEYCVCGMQEMLDSVPEKRFPVCQAHGYFCQLIDGLEYLHSQGIVHKDIKPGNLLLTTGGTLKISDLGVAEALHPFAADDTCRTSQGSPAFQPPEIANGLDTFSGFKVDIWSAGVTLYNITTGLYPFEGDNIYKLFENIGKGSYAIPGDCGPPLSDLLKGMLEYEPVKRFSIRQIRQHSWFRKKHPPAEAPVPIPPSPDTKDRWRSMTVVPYLEDLHGADEDEDLFDIEDDIIYTQDFTVPGQVPEEEASHNGQRRGLPKAVCMNGTEAAQLSTKSRAEGRAPNPARKACSASSKIRRLSACKQQ [A295V], the STK11 functional score turned out to be 1.17 ± 0.28.
